# Assay results: the RNAGym collection of RNA variant scans (doi:10.1021/acssynbio.7b00057)
# B1: Pistol ribozyme (parent)
# chain: GGGUCGUUGUUCCAUAAUCGCGUGGAUAUGGCACGCAAGUUUCUACCGGGCACCGUAAAUGUCCGACUGGAGCCGUUCGGGCGGCUAUAAACAGACCUCAGGCCCGAAGCGUGGCGGCACCUGCCGCCGGUGGUAAAAAAGAUCGGAAGAGCACACGUCU
# Variants of: B1
# Test: aptazyme ON/OFF ratio, guanine; higher = stronger switching; co-transcriptional cleavage with and without guanine
row,Variant,aptazyme ON/OFF ratio
1,GGGUCGGUUAAUAAUAAUCGCGUGGAUAUGGCACGCAAGUUUCUACCGGGCACCGUAAAUGUCCGACUGGAGCCGUUCGGGCGGCUAUAAACAGACCUCAGGCCCGAAGCGUGGCGGCACCUGCCGCCGGUGGUAAAAAAGAUCGGAAGAGCACACGUCU [U7G G9U U10A U11A C12U C13A],0.962
2,GGGUCGUUCGAGGAUAAUCGCGUGGAUAUGGCACGCAAGUUUCUACCGGGCACCGUAAAUGUCCGACUGGAGCCGUUCGGGCGGCUAUAAACAGACCUCAGGCCCGAAGCGUGGCGGCACCUGCCGCCGGUGGUAAAAAAGAUCGGAAGAGCACACGUCU [G9C U10G U11A C12G C13G],1.24
3,GGGUCGGAACCGAAUAAUCGCGUGGAUAUGGCACGCAAGUUUCUACCGGGCACCGUAAAUGUCCGACUGGAGCCGUUCGGGCGGCUAUAAACAGACCUCAGGCCCGAAGCGUGGCGGCACCUGCCGCCGGUGGUAAAAAAGAUCGGAAGAGCACACGUCU [U7G U8A G9A U10C U11C C12G C13A],1.09
4,GGGUCGCGUACAGAUAAUCGCGUGGAUAUGGCACGCAAGUUUCUACCGGGCACCGUAAAUGUCCGACUGGAGCCGUUCGGGCGGCUAUAAACAGACCUCAGGCCCGAAGCGUGGCGGCACCUGCCGCCGGUGGUAAAAAAGAUCGGAAGAGCACACGUCU [U7C U8G G9U U10A U11C C12A C13G],1.16
5,GGGUCGUAGACGGAUAAUCGCGUGGAUAUGGCACGCAAGUUUCUACCGGGCACCGUAAAUGUCCGACUGGAGCCGUUCGGGCGGCUAUAAACAGACCUCAGGCCCGAAGCGUGGCGGCACCUGCCGCCGGUGGUAAAAAAGAUCGGAAGAGCACACGUCU [U8A U10A U11C C12G C13G],1.27
6,GGGUCGAAAUGGGAUAAUCGCGUGGAUAUGGCACGCAAGUUUCUACCGGGCACCGUAAAUGUCCGACUGGAGCCGUUCGGGCGGCUAUAAACAGACCUCAGGCCCGAAGCGUGGCGGCACCUGCCGCCGGUGGUAAAAAAGAUCGGAAGAGCACACGUCU [U7A U8A G9A U11G C12G C13G],1.33
7,GGGUCGGAGGUCCAUAAUCGCGUGGAUAUGGCACGCAAGUUUCUACCGGGCACCGUAAAUGUCCGACUGGAGCCGUUCGGGCGGCUAUAAACAGACCUCAGGCCCGAAGCGUGGCGGCACCUGCCGCCGGUGGUAAAAAAGAUCGGAAGAGCACACGUCU [U7G U8A U10G],1.28
8,GGGUCGAAUGUAGAUAAUCGCGUGGAUAUGGCACGCAAGUUUCUACCGGGCACCGUAAAUGUCCGACUGGAGCCGUUCGGGCGGCUAUAAACAGACCUCAGGCCCGAAGCGUGGCGGCACCUGCCGCCGGUGGUAAAAAAGAUCGGAAGAGCACACGUCU [U7A U8A G9U U10G C12A C13G],1.09
9,GGGUCGCUACUUGAUAAUCGCGUGGAUAUGGCACGCAAGUUUCUACCGGGCACCGUAAAUGUCCGACUGGAGCCGUUCGGGCGGCUAUAAACAGACCUCAGGCCCGAAGCGUGGCGGCACCUGCCGCCGGUGGUAAAAAAGAUCGGAAGAGCACACGUCU [U7C G9A U10C C12U C13G],1.16
10,GGGUCGUAUGUAAAUAAUCGCGUGGAUAUGGCACGCAAGUUUCUACCGGGCACCGUAAAUGUCCGACUGGAGCCGUUCGGGCGGCUAUAAACAGACCUCAGGCCCGAAGCGUGGCGGCACCUGCCGCCGGUGGUAAAAAAGAUCGGAAGAGCACACGUCU [U8A G9U U10G C12A C13A],1.18
11,GGGUCGUAGUCCCAUAAUCGCGUGGAUAUGGCACGCAAGUUUCUACCGGGCACCGUAAAUGUCCGACUGGAGCCGUUCGGGCGGCUAUAAACAGACCUCAGGCCCGAAGCGUGGCGGCACCUGCCGCCGGUGGUAAAAAAGAUCGGAAGAGCACACGUCU [U8A U11C],1.12
12,GGGUCGCGAGGCAAUAAUCGCGUGGAUAUGGCACGCAAGUUUCUACCGGGCACCGUAAAUGUCCGACUGGAGCCGUUCGGGCGGCUAUAAACAGACCUCAGGCCCGAAGCGUGGCGGCACCUGCCGCCGGUGGUAAAAAAGAUCGGAAGAGCACACGUCU [U7C U8G G9A U10G U11G C13A],1.2
13,GGGUCGGGACAAUAUAAUCGCGUGGAUAUGGCACGCAAGUUUCUACCGGGCACCGUAAAUGUCCGACUGGAGCCGUUCGGGCGGCUAUAAACAGACCUCAGGCCCGAAGCGUGGCGGCACCUGCCGCCGGUGGUAAAAAAGAUCGGAAGAGCACACGUCU [U7G U8G G9A U10C U11A C12A C13U],1.25
14,GGGUCGUUUUGAGAUAAUCGCGUGGAUAUGGCACGCAAGUUUCUACCGGGCACCGUAAAUGUCCGACUGGAGCCGUUCGGGCGGCUAUAAACAGACCUCAGGCCCGAAGCGUGGCGGCACCUGCCGCCGGUGGUAAAAAAGAUCGGAAGAGCACACGUCU [G9U U11G C12A C13G],1.32
15,GGGUCGGUAGAAGAUAAUCGCGUGGAUAUGGCACGCAAGUUUCUACCGGGCACCGUAAAUGUCCGACUGGAGCCGUUCGGGCGGCUAUAAACAGACCUCAGGCCCGAAGCGUGGCGGCACCUGCCGCCGGUGGUAAAAAAGAUCGGAAGAGCACACGUCU [U7G G9A U10G U11A C12A C13G],1.05
16,GGGUCGCGGGCUAAUAAUCGCGUGGAUAUGGCACGCAAGUUUCUACCGGGCACCGUAAAUGUCCGACUGGAGCCGUUCGGGCGGCUAUAAACAGACCUCAGGCCCGAAGCGUGGCGGCACCUGCCGCCGGUGGUAAAAAAGAUCGGAAGAGCACACGUCU [U7C U8G U10G U11C C12U C13A],1.33
17,GGGUCGGUCCCAUAUAAUCGCGUGGAUAUGGCACGCAAGUUUCUACCGGGCACCGUAAAUGUCCGACUGGAGCCGUUCGGGCGGCUAUAAACAGACCUCAGGCCCGAAGCGUGGCGGCACCUGCCGCCGGUGGUAAAAAAGAUCGGAAGAGCACACGUCU [U7G G9C U10C U11C C12A C13U],1.03
18,GGGUCGUAGAUGAAUAAUCGCGUGGAUAUGGCACGCAAGUUUCUACCGGGCACCGUAAAUGUCCGACUGGAGCCGUUCGGGCGGCUAUAAACAGACCUCAGGCCCGAAGCGUGGCGGCACCUGCCGCCGGUGGUAAAAAAGAUCGGAAGAGCACACGUCU [U8A U10A C12G C13A],1.15
